Experimental data published in a protein production outcome set (Wang et al. 2014).

Test: label from the status in PepcDB records

Sequence | protein production
MAHEGEQFIKDIQREYVDFLDDEEDQGIYAGHVKDMIAEKSKRLIVNVNDLKRKNPQRALGLLSNAADEQLAFGRALKEYASTVDPGYAKMHEDLFVGFEGCFGNRHVTPRSLTSIYLGNMVCVEGIVTKVSLIRPKVVRSVHYCPNTRKVMERKYTDLTSFEAVPSGAAYPTKDEDGNLLETEYGLSVYKDHQTLTIQEMPEKAPAGQLPRSVDIVCDDDLVDRCKPGDRVQIVGSYRCLPGKRGGYTSGTFRTVLLANNISLLSKESNLDISREDIMLCKKLAKNNDIFELLSKSLAPSIHGHAYVKQAILCLLLGGVEKILPNGTRLRGDINVLLIGDPSVAKSQLLRYVLNTAPRAIPTTGRGSSGVGLTAAVTTDQETGERRLEAGAMVLADRGVVCIDEFDKMSDIDRTAIHEVMEQGRVTISKAGIHASLNARCSVLAAANPVYGRYDQYKTPMENIGLQDSLLSRFDLLFVMLDVIDSDVDQMISDHVVRMHRYRNPKEADGEPLSMGSSYADSLSFVSSSEEKKDTEVYEKYDALLHGKSRQRHEKILSVEFMRKYIHIAKCMKPKLGEQACEAIANEYSRLRSQEAVETDVARTQPITARTLETLIRLSTAHARARMSKSVTIDDAHAAIELVQFAYFKKVLDKDRPSKRRRNSGSDAEDDNGEASSQRSPSRRSKRTRTATVGADSDEEDIEPPQPDAGDLTRRETRRSLPARSVAMLMASPSSEEQSVATSTTEPAIISDARLGEFKNNLQRLFREAREQSLALARITTAINVGSQEPFTAGEIEAAVHRMTEDNQIMVADDIVFLI | failed
MAHPPQIRIPATYLRGGTSKGVFFRLEDLPESCRVPGEARDRLFMRVIGSPDPYAAHIDGMGGATSSTSKCVILSKSSQPGHDVDYLYGQVSIDKPFVDWSGNCGNLSTGAGAFALHAGLVDPARIPEDGICEVRIWQANIGKTIIAHVPVSGGQVQETGDFELDGVTFPAAEIVLEFLDPSDDGEDGGAIFPTGNLVDDLEVPGVGTFKATMINAGIPTVFVNAEEIGYRGTELREEINGDPQQLARFERIRVAGALRMGLIKTPEEAATRQHTPKIAFVAPPRDYRTASGKLVAAGDIDLLVRALSMGKLHHAMMGTAAVAIGTAAAIPGTLVNLAAGGGERSAVRFGHPSGTLRVGAEASQANGEWTVTKAIMSRSARILMEGWVRVPGDAF | not failed
MAHSPLVSIVVPAHNAEATLARALDCLLDQEIVDWEAVIVDDASTDRTPAIIAGYVEHDARFRTLRSSTSSAAGARNSGISTARGHWLMFLDADDWVDASFLAKMLAALKAAPDAVAAYCGSRRVMPDGELTPSSISTEVAIQPFETFARQCAIRTHALLVDREAIVGLGGFDVSLRTCENWDLWQRLAHLGKRWVMVDEPLAFYRVSPNSLSRNSTQMLADAEIVIARGFSADPRVSHPASGQANGAISANGGTASEALAWFALWNAASDCGRGSRSIDPQALRALPAGRKWAREIAEVAIDGLMVGSLSVPAQLAARWGRFGGPLTELIIELGKVWDNPAAGRRVQYQLEQMLLDADDLAAPRRLARTLGIRVDVRNPNAIELPEGIDRIYAYLMMDGQIEAVVQFGVLGTVTRDHWIELIQNVVPAERLADSTARLAGRSTVPQEGAGADTSNTFAAEALLFTAERRSDPDSHFGKLAQLTAEARELVRSSAEPEQPPAVPRRARAADTNDRTAFWNSYFATEDPWNYGSLYEQEKYQRQLEILPAGPIGRVLELACAEGHFTRQLAPRVSHLTATDISAIAIERARARCGDQPNIEFGVLDFAADMLPGEMDLIVCSEVLYYLDDLADLRRITKKFTEALAPGGSFITAHAFVLRDNVERTGFDWNTFGAQAISETLAATEGLVLEQSIQTELYRIDRFRRLSPDDLVTEPMIDHAPIRAQIEIGVARNIIWGGARALRRDVARNEQRQRVPVLMYHSVSDDGPAALARFRLTPAGFGSQMAWLRANGFHAINSEQLEGCIANRQPFVGRPVLITFDDGFQNFADHAWPTLRANDLTAEVFLVTDLVGKGAQWDAHNGPPTQLMDAGTVRRLAGEGAFFGSHMATHRAIDGLSSSDLAAELLRSRMFIERWTGRPTTAFTAPFSVTDRRLGRLARECGYRIGFGARHGPADLDCDLIDLPRIEIRGDRSLDDFVATVEAVLKER | failed
MAHTVYENARIYTVNDQQPTASVLVVEQGKIIYVGGNDGAKQFKATAAELFDLEGKTVLPGFIESHAHPLEHHHHHH | failed
MAIARALRDELSFGAVSRRENPVSAHIPYSRHVSDEVIKTQDGMLMSFVHMSGLCFETIDIAEINSRLLGRNDLIRGLANSRYAIYSHIVRREVKPAIESSFENKFCQELDQRYTAALRTQRMFVNDIYLTIVRRELQGTVGTADLVIRKLLGRRAADGRSSSEERALIELTDVMKAVRESLQAYGARVLTVVKRNDVWHSEPLEFLVQLVNGGFPRPMALPRMKLAEALATKRLFFGPNALEIRGAFPGETRYGAIISVGEYPSITGPGMLNPMLKVPHEFIVTQSFAIIDKPQALTQMERVGRKIDMSDEADSIVGDQLGEARDELLSSEALYGLHHLTVLCLGKTMDDVARCVTDVGTALTEVSALWVREDLNCEPAFWATLPGNFAYVARKSMISSKNMAGFSAFHNYPSGRTGGVHWGMPISVLETTSQTAYFFNFHVRDLGNFTLNGPSGSGKTVLLGFLAAQAQRITPRPKLVMIDKDRGLDIFVRSLGGRYEVLKAGEPSGFNPLRLPDTPRNREFLFQLFSFILRRSDGYAHSTREEQVIRNAIAQVASAPPEGRTMEEFAELLRGAMRAGDDDLYSRLQPWMRPDQRGWLFNNAEDSFSMSSIFGFDMTSVLSDATTSTAALLYIFHRIEELLDGQPVMIFLDEGWKLLDNDIFSYFIKDKLKTIRKLNGIIGFGTQSAADIVKSSIANTLIEQTPTNIFFPNPKADEESHRAFGLSEREIKWIRETPPEARKFLIKHDQDSVIARLNLGAMPDAIKILSGRIETVQELDALRARVGDDPDVWLPVFLGRDPE | failed
MAIEGKTTDVANKRIRLGMVGGGSGAFIGGVHRMAARLDNRFDLVAGALSSTPEKSLASGRELGLDSERCYGSFEEMAEKEALREDGIEAVAIVTPNHVHYPAAKAFLERGIHVICDKPLTSNLEDAKKLKDVADKADALFILTHNYTGYPMVRHARELVEAGALGNIRLVQMEYPQDWLTEAVEQTGAKQAVWRTDPAQSGVGGSTGDIGTHAYNLGCFISGLEADELAADVHTFVEGRRLDDNAHVMMRFKPKGGKQPARGMLWCSQVAVGHENGLKIRLYGDKAGLEWTQADPNYLWFTKLGEPKQLITRGGAGAGAAAARVTRIPSGHPEGYLEAFATIYTEAAHAIEARRTGSALDKAVIYPTVDDGVKGVAFVTACIESGKKNGGWVKL | failed
MAIFMSYVLLGLSLAAPIGPVNAAQLDRGIKNGFFHAWLVGLGAITADVIYMLLVFFGLVHFLQLPFMQTFLWLFGFFVLVYTGIETISSVNHLKEATNMRTSETYRKSFIYGFLMSISNPLTILFWLGIFGSVLAKTASVYGPAQLVFYSSAILIGLLLWDVAMAGIASGARHMLTPARLKIVSILSGLTLIGFGVYFGLQACRVLFG | failed
MAILHSVSYGTSDNTLVFIGSLGSTTDMWLPQLDALHKDFRVIAVDHRGHGLSELIEGTPTVADLAQDVLDTLDDLGVGNFGVIGLSLGGAVAQYLAATSDRVTKAAFMCTAAKFGEPQGWLDRAAACRENGTGSLSEAVIQRWFSPTWLENNPASREHFEAMVAGTPSEGYALCCEALATWDFTDRLGEITVPVLTIAGADDPSTPPATVQIIADGVGGESRAEVLSPAAHVPTVERPNEVNELLAQHFA | failed
MAIMRHGLAASVMGTALAMVVAVLPAGCANGQVGEANRPGTTPPSEIALAPSGLGSYLAARHAEAEGDTEAAAAFYLTALADDPDNLNLLRRAYFFNAVEGKVGEAAELASRLMVSDPTATIAPLVISADLAKRGQMREAATLINGQNRQGLNSFLVPVALAWARAGAGDAGGAMTALDELSKNAGYATLRALHGALLQEQLGNKAKAGELYEAYVKGGERPSLRGVQLAGGFFVRTGQAARARALAADYSQRFPDSLLLDNAVAGFAEGGTPPAPEVGTAKDGMAELYYGTASLLADNDLQTATMFNRLALHLRPDFPLAQLLLGQLLAGQNRHDDAIAAYRGIESHDTLMLAAGLAEAESLRAQGKIDDAVVEFDKLAAHFPSRPDPLIEKGDLLRQDQRFAEAATAYSAAIARMGAPDPRHWAVYFGRGVAYERTDRWPLAEQDFQTALRLNPDQPFVLNYLGYSWLDNGINVDQAKQLIERAVAQRPKDGYIIDSLGWAHFRLGEYAEAVGILERAIHETPDDATINDHLGDAYWMVGRRLEARYQWERALSLADDADLSASIQKKLDTGLSPPSPVVPRSAGRPAERQPTSATP | failed
MAINIIEYNRSYKEELIEFILSIQKNEFNIKIDRDDQPDLENIEHNYLNSGGQFWLAINNHQNIVGTIGLIRLDNNMSALKKMFVDKGYRNLKIGKKLLDKVIMTCKEQNIDGIYLGTIDKFISAQYFYSNNGFREIKRGDLPSSFPKLDVDNRFYYRNLKD | not failed
MAIRLTHLRKPLAYSRSFDVCIPFFRSISSFEAVEKAIKCAVETKEYLRIPELVVSLKEPYQNSTLFSFLSAFQRHHRIRVIDEILQSFVPVRPRSLPKIVYSSLLTYCLQSSDPLPLSFAILQRTLRSGCLPNPQTHLLLSDAWLERRRGSQSVADIINEMKLIGYSPDTGTCNYLVSSLCAVDKLDEAIKVVEEMSAAGCIPDVESYGAVINSLCLARKTTDVVKIVKEMVSKAGISPRKGMLTKVAAALRANREIWKAIEMIEFVESRDYPVEFESYEVVVEGCLEVREYILAGKVVMRMTDRGFIPYIKVRQKVVERLINIGEWKLACTVRQRVSELRS | failed
MAIRRCYIAQNPKSSCRFNCVRERFEDLRGVPCLVYEGETRDWINAALFLEDENESEDRKRFVLHTSHSALLYMEYDLTSNADCTVLELARCTDSSILYYTKLHGSSFNKLAIISGNAFGELLVWQTQFPTESDPKSVMKTYPLLLRIEAHNGVIHSIEFDLQSQLLVTTSDDRSVKFWNIQKSGDWTTAEIKPMFSCYGHSSRVMCVVILKIDDRTFVASGGEDSYVCIWSSSGELILKRRQQFGAPIWRLGFSQDAEILYSTSSTGNLVGQNLKEVLNRPKIESTILSSLGDANEFVRNLKFVNNEIIVGLSSLNRLYYTRISPDSSHENKWLMVNDFPSYKRTVLEVFDDIIATCGHRRITLHRDRYLVSDNLGYCLLLQTHQLHIESHIALFNNREPWITAALLISEQYLLLGNREGHVMLYCRSSASDDFQLKDSIRYLHGKMGSNFFKLLSLNADNAHVMSGGHEAFLKYLSVRFSDSTLRVSQREGIPLAWVEASPSDDLILGFNDNHIVAWSRRNDILLQLACGGGHRCWDFRLSDGDSQLSIAYVKQKRVYFYRNSLYNAVDNRLKDIEPNNWHVRNCNTLRLITPRNQSDPFILSAGDDNIIKVTQVTNDSLSQRAEMHSHISTVRSLQAIPYKSNGGDSSTWLVFSVGGRSQLCISQLSIDASNKCWISEISSHTLHNVAASKTSTIEARLMAIDVVQHSDGDLFSIYVAGGDGNISHYIWELETPNQLDLKHFVDIQRCPLGIQWIASKGMLLVSTTNGEVYGFDRTLETTYFQLQLHVTGINTIDIYVDRHLLHILSGGDDESIKYTVLNLNNNNVEQKIEYLGLHNAQVNALAIHCPTKSVAASELFAYTCSIDRQIYRIDLSTHKYKRVGYTCIADVKGMLLDEHQRMYFYGCGLQTMSISNIL | failed
MAIRSALMNVMLIAVKKAAKGLVRDFGELENLQVSRKGPSDFVSNADLKAEKILKAELRKARPAYSFLMEESGAEDGADTSRRWIVDPLDGTTNFLHGIPHFAISVALEEKGEIVAGVIYNPILDELYTAEKGNGAFVNDRRLRVSGRRDLAESLFATGIPFQGKGGHARFLGQLAKVMAKTSGVRRIGAASLDLAYVAAGRVDGYWEEGLHPWDCAAGILLVKEAGGYVTTLDGKPDPLRQGSLLAANPLMHPLLGELLAEE | failed
MAISIRTMAALSMVGLRGKRDVQQYSEWISQPCRPAMKGFRPGIGPTLVVLLLLPVLVALGFWQLGRGEQKRQLLASYAERRAAEPVALFELLASEDPAFRRVRLHGHFDADHSLLLDNRLHDGKVGVELLQPFLDQASGRWLLVNRGWLPWPDRRTPPVFSTPQQSLSLDAWVYVSPGAAFQLHADPSGASWPRLITAVGPQALWAELGRSGFDHEVRLESGPGAYLTEWPVVAMGPEKHQAYAVQWFAMALALFALYLYFGWHNTREKRHGNGHESTQHL | failed
